Results published in patent US20090143241A1.

Target: ClpXP protease (E. coli ClpX6 with ClpP14) (E. coli) (UniProt P0A6H1)
Assay: cell-based or functional assay

Sequence of ClpXP protease (E. coli ClpX6 with ClpP14) (E. coli) (P0A6H1 whole entry, chain 1 of 2): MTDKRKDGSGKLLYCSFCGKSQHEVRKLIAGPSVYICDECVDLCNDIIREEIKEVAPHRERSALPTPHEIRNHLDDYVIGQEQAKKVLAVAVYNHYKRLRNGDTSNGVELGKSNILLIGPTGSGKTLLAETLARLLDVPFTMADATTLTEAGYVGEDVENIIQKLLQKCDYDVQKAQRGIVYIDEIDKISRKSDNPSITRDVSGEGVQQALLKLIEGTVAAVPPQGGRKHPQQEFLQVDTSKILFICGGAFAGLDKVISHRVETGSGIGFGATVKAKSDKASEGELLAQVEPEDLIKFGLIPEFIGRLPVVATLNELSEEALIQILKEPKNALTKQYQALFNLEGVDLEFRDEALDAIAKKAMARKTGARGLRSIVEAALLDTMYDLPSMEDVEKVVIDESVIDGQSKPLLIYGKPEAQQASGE
Sequence of ClpXP protease (E. coli ClpX6 with ClpP14) (E. coli) (P0A6G7 15-207, chain 2 of 2, further chain): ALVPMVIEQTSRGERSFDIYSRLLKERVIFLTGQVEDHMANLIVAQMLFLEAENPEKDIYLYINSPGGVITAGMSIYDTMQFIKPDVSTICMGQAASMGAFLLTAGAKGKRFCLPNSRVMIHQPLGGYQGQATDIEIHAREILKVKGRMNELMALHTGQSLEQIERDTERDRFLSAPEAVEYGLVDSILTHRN

In the case of “λ O protein, N-terminally His6-tagged (from UniProt P03688 1-333)”, the half-life of λ O with ClpXP, no inhibitor was 35 min.
